Measurements published in the supplement of paper PMC10126150.
± gives the standard deviation of the averaged measurements.

System: ATP
Experiment: switch fluorescence ratio, 500 uM ATP over buffer (Cy3 cluster intensity, sum of 5 cycles each) (fold (ratio)); higher = stronger signal-on switching upon ATP binding; sequences stand for … in TCGTCGGCAGCGTCAGATGTGTATAAGAGACAGTTTTTTTTTTTTTTTTTTTTTTTTT…TC
Settings: aptamer strand: ATP DNA aptamer (quencher-CACCTGGGGGAGTATTGCGGAGGAAGG + anchor), 100 nM annealed; ATP concentration: 500 uM
Procedure, shortened: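 Exposure to 500 uM ATP lasted 15 min at 22 °C before imaging, and a selection-buffer image was taken beforehand, for Cy3-labelled switching-strand clusters on a modified Illumina MiSeq flow-cell annealed to 100 nM quencher-labelled ATP aptamer. Five buffer/ATP cycles were run with NaOH stripping and re-annealing between them. The fluorescence ratio per cluster is summed target-cycle over summed buffer-cycle Cy3 intensity, averaged per switch-domain sequence. Clusters outside 100-1000 RFU were excluded.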

Row | Sequence | switch fluorescence ratio
1 | GGGACACGGT | 0.987 ± 0.023
2 | GGGACATTCA | 1.03 ± 0.023
3 | GGGACCCAGC | 0.992 ± 0.039
4 | GGGACCTGCT | 0.951 ± 0.02
5 | GGGACGTGTG | 1.007 ± 0.0068
6 | GGGACTTTGG | 0.972 ± 0.018
7 | GGGAGAAAGT | 0.9995 ± 0.0034
8 | GGGAGAATTA | 1.037 ± 0.0022
9 | GGGAGATATT | 0.985 ± 0.0099
10 | GGGAGATTGG | 1.09 ± 0.12
11 | GGGAGCACTA | 1.09 ± 0.017
12 | GGGAGCCCTC | 0.9958 ± 0.0055
13 | GGGAGCGCGT | 1.02 ± 0.056
14 | GGGAGCTAGG | 0.9709 ± 0.0038
15 | GGGAGGAAGA | 1.01 ± 0.03
16 | GGGAGGCCAT | 0.9683 ± 0.0076
17 | GGGAGGCTTC | 1 ± 0.021
18 | GGGAGGGAAG | 1.03 ± 0.031
19 | GGGAGGGACC | 1.01 ± 0.011
20 | GGGAGGGAGC | 1.02 ± 0.06
21 | GGGAGGGCAT | 1 ± 0.027
22 | GGGAGGGGCA | 0.971 ± 0.012
23 | GGGAGGGTAT | 1.01 ± 0.036
24 | GGGAGGGTGG | 0.996 ± 0.06
25 | GGGAGGTTCT | 0.974 ± 0.033

Row | Sequence | switch fluorescence ratio
26 | GGGAGTGTAA | 1 ± 0.033
27 | GGGAGTTGAA | 0.9747 ± 0.0083
28 | GGGAGTTTGG | 0.975 ± 0.027
29 | GGGAGTTTTG | 1 ± 0.018
30 | GGGATAATGA | 0.977 ± 0.035
31 | GGGATAATGG | 0.968 ± 0.032
32 | GGGATACGCT | 1.03 ± 0.054
33 | GGGATACTTA | 1.02 ± 0.04
34 | GGGATAGATT | 1.028 ± 0.008
35 | GGGATATGGA | 1.04 ± 0.049
36 | GGGATATTTG | 0.999 ± 0.036
37 | GGGATCATAG | 0.9961 ± 0.0072
38 | GGGATCTACA | 1.03 ± 0.024
39 | GGGATCTACG | 1.04 ± 0.026
40 | GGGATCTAGG | 0.974 ± 0.026
41 | GGGATCTCGG | 1.05 ± 0.0066
42 | GGGATCTGTT | 1.01 ± 0.019
43 | GGGATGAATG | 0.9773 ± 0.0079
44 | GGGATGACAG | 1.02 ± 0.072
45 | GGGATGCAGA | 1.05 ± 0.0076
46 | GGGATGGATT | 0.969 ± 0.047
47 | GGGATGGGCG | 1.03 ± 0.031
48 | GGGATGGGCT | 1.01 ± 0.014
49 | GGGATGGTAG | 1.01 ± 0.027
50 | GGGATGTGGG | 1 ± 0.013

Row | Sequence | switch fluorescence ratio
51 | GGGATTACCA | 1 ± 0.056
52 | GGGATTAGCA | 0.988 ± 0.042
53 | GGGATTATCA | 1.016 ± 0.0094
54 | GGGATTATTA | 0.981 ± 0.018
55 | GGGATTCGAG | 0.987 ± 0.02
56 | GGGATTCGGA | 0.9499 ± 0.0088
57 | GGGATTGTCT | 0.948 ± 0.033
58 | GGGATTGTGT | 0.963 ± 0.055
59 | GGGATTGTT | 0.996 ± 0.033
60 | GGGATTTAGG | 0.997 ± 0.035
61 | GGGATTTATG | 1.01 ± 0.036
62 | GGGATTTGG | 0.985 ± 0.015
63 | GGGATTTTGG | 0.973 ± 0.026
64 | GGGCAAAATC | 1.04 ± 0.018
65 | GGGCAAAGGA | 0.993 ± 0.011
66 | GGGCAACGGG | 1.2 ± 0.12
67 | GGGCAAGAGC | 1.04 ± 0.063
68 | GGGCAAGCGA | 1.08 ± 0.043
69 | GGGCAATAAC | 3.95 ± 0.13
70 | GGGCAATCGG | 1.75 ± 0.97
71 | GGGCACAGCA | 0.9752 ± 0.0056
72 | GGGCACTCGC | 0.999 ± 0.033
73 | GGGCAGACGT | 0.971 ± 0.063
74 | GGGCAGGTTT | 1.01 ± 0.014
75 | GGGCATATAG | 1.61 ± 0.71

Row | Sequence | switch fluorescence ratio
76 | GGGCATTGGT | 0.991 ± 0.049
77 | GGGCCACGGA | 1.01 ± 0.048
78 | GGGCCAGGTA | 0.985 ± 0.015
79 | GGGCCATTGG | 1 ± 0.018
80 | GGGCCGGGAG | 0.984 ± 0.02
81 | GGGCCGTTTG | 1.002 ± 0.0047
82 | GGGCCTAGCG | 0.978 ± 0.019
83 | GGGCCTCGGT | 0.9914 ± 0.0087
84 | GGGCCTGAAA | 1.08 ± 0.093
85 | GGGCCTGGGA | 1.01 ± 0.012
86 | GGGCCTTGGT | 0.987 ± 0.025
87 | GGGCGCATCG | 0.999 ± 0.018
88 | GGGCGCCAAA | 1.0045 ± 0.00091
89 | GGGCGCGGGA | 0.991 ± 0.015
90 | GGGCGGACAG | 0.985 ± 0.019
91 | GGGCGGGGAA | 1.03 ± 0.035
92 | GGGCGGGGCG | 0.938 ± 0.063
93 | GGGCGGGTTT | 1.005 ± 0.0026
94 | GGGCTAGGAG | 0.987 ± 0.014
95 | GGGCTAGGTA | 1.01 ± 0.0074
96 | GGGCTAGTGT | 0.963 ± 0.01
97 | GGGCTCATTT | 1.01 ± 0.021
98 | GGGCTGAGGA | 1 ± 0.036
99 | GGGCTGGAGG | 0.983 ± 0.025
100 | GGGCTGGGGC | 0.997 ± 0.11
